In publication PMC4742745 (The Journal of Biological Chemistry, 2015):

T1: recombinant human wild type LCAT protein (lecithin-cholesterol acyltransferase) (human, UniProt P04180 25-440)
T1 construct: human lecithin-cholesterol acyltransferase (EC 2.3.1.43), full-length coding region cloned from liver and brain cDNAs into pDSRa25; also called rLCAT; human rLCAT
T1 sequence (looked up): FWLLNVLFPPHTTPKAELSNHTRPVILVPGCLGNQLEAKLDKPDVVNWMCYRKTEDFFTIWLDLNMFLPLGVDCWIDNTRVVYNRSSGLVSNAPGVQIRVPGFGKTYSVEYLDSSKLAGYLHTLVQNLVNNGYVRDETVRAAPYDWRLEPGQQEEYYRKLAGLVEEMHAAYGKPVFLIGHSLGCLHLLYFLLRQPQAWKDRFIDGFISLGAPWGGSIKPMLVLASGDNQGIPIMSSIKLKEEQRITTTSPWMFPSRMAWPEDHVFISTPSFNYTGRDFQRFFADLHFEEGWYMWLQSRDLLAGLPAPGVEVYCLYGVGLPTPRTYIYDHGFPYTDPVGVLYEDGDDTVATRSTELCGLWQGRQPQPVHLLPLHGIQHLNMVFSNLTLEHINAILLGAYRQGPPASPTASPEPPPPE

B1: 27C3, fully human anti-human LCAT agonistic monoclonal antibody (antibody, V domains shown)
VH: QVQLQESGPGLVKPSQTLSLTCTVSGASISSGGYNWSWIRQHPGKGLEWIGYIYYSGSTYYNPSLKSRVTISVDTSKNQFSLKLSSVTAADTAVYYCARERGYCSSTSCSRVMDVWGQGTTVTVSS
VL: SSELTQDPAVSVALGQTVRITCQGDSLRSYYASWYQQKPGQAPVLVIYGKNNRPSGIPDRFSGSSSGNTASLTITGAQAEDEADYYCNSRDNIGNHQVFGGGTKLTVLG
notes: VH of 27C3; VL of 27C3 (lambda); Human IgG2 with lambda light chain; a possible N-linked glycosylation site in heavy chain CDR1; also called 27C3 mAb; 27C3-huIgG2; source: XenoMouse hybridoma, purified from clonal hybridoma exhaust supernatants
B2: 18E5, fully human anti-human LCAT agonistic monoclonal antibody (antibody, V domains shown)
VH: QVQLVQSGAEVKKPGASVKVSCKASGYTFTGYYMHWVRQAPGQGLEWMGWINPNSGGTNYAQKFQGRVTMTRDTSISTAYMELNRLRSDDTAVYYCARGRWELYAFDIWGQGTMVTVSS
VL: EIVLTQSPGTLSLSPGERATLSCRASQSVSGSYLTWYQQKPGQAPRLLIYGASSRATGIPDRFSGSGSGTDFTLTISRLEPEDFAMYYCQQYGGSPPFTFGPGTKVDIKR
notes: VH of 18E5; VL of 18E5 (kappa); Human IgG with kappa light chain (the light chain was amplified with a primer to the human kappa constant region); also called 18E5 mAb; source: XenoMouse hybridoma, purified from clonal hybridoma exhaust supernatants

Tests used:
[1] = target: T1, recombinant human wild type LCAT …; test: SPR; Biacore 3000, 25 °C, HBS-EP (10 mM HEPES pH 7.4, 150 mM NaCl, 3.0 mM EDTA, 0.05% surfactant P20); mAb captured (100 RU) on goat anti-human IgG Fc amine-coupled to a CM5 chip; LCAT flowed over (human 100 nM to 412 pM, cynomolgus 111 nM to 457 pM, 3-fold dilutions); 1:1 binding model, KD = kd/ka; conditions: both partners purified
[2] = target: T1, recombinant human wild type LCAT …; test: cell-based or functional assay

Binder	Kd [1]	increase of the cholesterol esterification activity of native LCAT by 27C3, apoAI-proteoliposomes as substrate [2]	koff [1]	kon [1]
B1	1.32 nM	3 fold	–	–
B2	1.01 nM	–	0.000133 s⁻¹	132000 M⁻¹ s⁻¹
